Assay: yeast display, Sf9 membrane polyspecificity reagent, FACS + sequencing; frameworks hold sequencing errors
Procedure, shortened: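 A synthetic nanobody library was expressed on Saccharomyces cerevisiae BJ5465 by galactose induction for 36–48 hours. The library was stained for 1 hour at 4 °C with 10% biotinylated, detergent-solubilized Sf9 membrane reagent and enriched with streptavidin microbeads before FACS. Low and high (top ~1%) gates were set on anti-HA fluorescence for expression and streptavidin fluorescence for reagent binding, and each polyreactivity label reflects the gate of origin.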

| Sequence | polyreactivity (PSR sort gate) |
| --- | --- |
| QVQLVESGGGLVQAGGSLLLICAASGLTFYAKVMGWYRQAPGKERELVASISRSGGRTYYADSVKGSFTISRDNAKNTVYLQMNSLKPEDTAVYYSAAADQVGQEDDYWGQGSQVTVSS | low polyreactivity |
| QVQLVESGGGLDQAGGSLRLSCAASGFTFRFYAIGWYRQAPGKERELVAAIDTSGGRTYYADSVKGRFTISRDNANNTVYLQMNSLKPEDTAVYYCNAQVLYRYDYWGQGTQVTVSS | high polyreactivity |
| QVQLVESGGGLVQAGGSLRLSCASSGFIFHTYAMGWYRQAPGKERELVAAISGGTSSTYYADSVKGRFTISRDNAKNTVYLQMKSLKPEDTAVYYCAARSRRGGYPRYFYWGQGTQVTVSS | high polyreactivity |
| QVQLVESGGGLVQAGGSLRLSCAASGFIFPRYTMGWYRQAPGKERELVASITRGVRTHYADSVKGRFTISRDNAKNTVYLQMNSLKPEDTAVYYCARRNDYVYTRHFDSWGQGTQVTVSS | high polyreactivity |
| QVQLVESGGALVQAGGSLRLSCAASGSIIVYNDMRSSRQAPGKQRELVAAITSSGGSTYYADSVKGRFTISRDNAKNTVYLQMNSLKPEDTAVYYCNVWDRPLTGYDYRGQGTQVTVSS | low polyreactivity |
| QVQLVESGGVLVQAGGSLRLSCAASGGIFQGNVMGWYRQAPGKERELVASIRRGGSTNYADSVKGPFTISRDNAKNTVYLQMNSLKPEDTAVYYCNAAFYKEYYYWGQGTQVTVSS | low polyreactivity |
| HFQLVESGGGLVQAGGSLRLSCAASGFTFNDMGWYRLATGKERELVARIDSDDTTNYADSVKGRFTISRDNAKKTVYVLMNSLKPEDTAVYYCNKDYAWLSYQDYDYWGQGTQVTVSS | low polyreactivity |
| QVQLVESGGGLVQAGGSLRLSCAASGRIFYDNAMGWYSQAPGKERELVAAIRIGGSTNYADSVKGRFTISRDNAKNTVYLLMNSLKPEDTAVYYCNRSDNPDSYYPDSVWGDSWGQGTQVTVSS | low polyreactivity |
| QVQLVESGGGLVQAGGSLRLSCAASGTSGYYAMGWNRQAPGKERELVAGISIGGSTNYADSVKGRFTISRDNAKNTVYLQMNSLKTEDTAVYYCAVDGYVAFSPDRNNYWGQVTQVTVSS | low polyreactivity |
| QVQLVESGGGLVQAGGSLRLSCAASGSIFWYYGMGWYRQAPGKERELVAAISSGGSTNYADSVKVRFAISRDNAKNTVYLQMNSLKPEDTAVYYCAVRFTFPRYPASYSRYYYWGQGTQVTVSS | high polyreactivity |
| QVQLVESGGGLVQAGGSLRLSCAASGRISRTNAMGWYRQAPGKERELVATITRGGNTNYADSVKGRFTISRDNAKNTVYLQMNSLKPEDTAVYYCAALGRYLRTYRGYVWQFDSWGQGTQVTVSS | high polyreactivity |
| QVQLVESGGGLVQAGGRLRLSCAASGSIFASYAMGWYRQAPGKERELVAAITSDGNTYYADSVKGRFTISRDNAKNTVYLPMNSLIPEDTAVYYCAADRYSTYPYAKGTEFYYWGQGTQVTVSS | low polyreactivity |
| QVQLVESGGGLVQAGGSLRLSCAASGRIFRYYAMGWYRQAPGKERELVAAISTAGSTYYADSVMGRFTISRDNAKNTVYLQMNSLKPEDTAVYFCAARTYRSVYGPEYGYWGQGTQVTVSS | high polyreactivity |
| QVQLVESGGGLVQAGGSLRLSCAASGLIFGRYAMGWYRQAPGKERELVAAINRNGGSTYYADSVKGRFTISRDNAKNTVYLQMNSLKPEDTAVYYCAAQYRSSRGHYDYWGQGTQVTVSS | high polyreactivity |
| QVQLVESGGGLVQAGGSLRLSCAASGSTFGVYAMGWYRQAPGKERELVAAINYSGRTYYADSVKGRFTISRDNAKNTVYLQMNSLKPEDTAVYYCAADWYWSRHEYEYWGQGTQVTVSS | high polyreactivity |
| QVKLVESGGGLVQAGCSLRLTCAASGSTSDMKAMGWYRQAPGKERELVAAISYSGGSTYYADSVKGRFTMSRDNAKNTVYLQMNSLKPEDTAVYYCAKQVADRYDYWGQGTEVTVSS | low polyreactivity |
| QFQLVDSGGGLVQAGGSLRLSCAASGSTFYWYTMGWYREAPGKERELVATITSVGRTNYADSVKGRFTISRDNAKNTVYLEMNSLKPEDTAVYYCAASKARWPRGGSKYYDWGQGTQVTVSS | high polyreactivity |
| QVQLVESGRGLVQAGGSLRISCAASGRIFFYYTMGWYRQAPGRERELVAAINSTGATNYADSVKGRFTISRDNAKNTVYLQMNSLKPEDTAVYYCNAGTRYIFLYPPFLGAAFDYWGQGTQVTVSS | low polyreactivity |
| QVQLVESGGGLVQAGGSLRLSCAASGSTFLVNAMGWYRQAPGKERELVAAISRSTGSTYYADSVKGRFTISRDNAKNTVYLQMNSLKPEDTAVYYCAVYRHGYGYNYWGQGSQVTVSS | high polyreactivity |
| QVQLVESGGGLVQAGGSLRLSCAASGLIFSYYAMGWYRQAPGKERELVAAISRGGSTNYADSVKGRFTISRDDAKNTVYLQMNSLKPEDTAVYYCAARWQWLNGYYYWGQGTQVTVSS | high polyreactivity |
| QVQLVESGGGLVQAGGSLRLSCAASGLTFDVYAMGWYRQAPGKERELVAALSTSGGRTYSADSVKGRFTISRDNAKNTVYLQMNSLKPEVTAVYYCNAGYDYYWRYYWYWYAFNYWGQGTQVTVSS | high polyreactivity |
| QVHLVESGGGLVEAGGSLRISCAAYGFIFGYNAMGWYRQAPGKERELVARINSGGNTNYADSVKGRFTISRDNAKNTVYLQMNSLKPEDTAVYYCARDASNRYDYWGQGNQVTVSS | low polyreactivity |

| Sequence | polyreactivity (PSR sort gate) |
| --- | --- |
| QVQLVESGGGLVQAGGSLRLSCAASGRTFSYYAMGWYRKAPGKERELVAAFSGRGASTYYADSVKGRFTISRDNAKNTVYVQMNSLKPEDTAVYYCNAVPYYQYEYWGQGTQVTVSS | low polyreactivity |
| QVQLVESGGGLVQAGGSLRLSCAASGSIFRYNALGWYRQAPGKEREFVAAITRSGGSTYADSVKGRFTISRDNAKNTVYLQMNSLKPEDTAVYYCAATFKWYSHTKPRFDYWGQGTQVTVSS | low polyreactivity |
| QVQLVESGGGLVQAGGSLRLSCAASGSTFTLNAMGWYRQAPGKERELVADISWSSGRTYYADSVKGRFTISRDNAKNTVYLQMNSLKPEDTAVYYCATYDFWNVKFYAYYPEFDYWGQGTQVTVSS | low polyreactivity |
| QVQLVESGGGLVQAGGSLRLSCAASGRIYGINVMGRYRQAPGKEMELVAAISYRTGSTYYADSVKGRFTISRDNAKNTVYLQMNSLKPEDTEVYYCAVRRPSSYSYGEDYWGQGTQVTVSS | high polyreactivity |
| QVQLVESGGGLDQAGGSLRLSWAASGFTFKNYTMGWYRQAPGKERELVAAISKSGDITYYADSVKGRFTISRDNAKNTVYLQMNSLKPEDTAVYYCNAPRRNWSYDYWGQGTQVTVSS | high polyreactivity |
| QVQLVESGGGLVQAGGSLRLSCAASGRIFYPYAMGWYRQAPGKERELVAAIRRSGVDTYYADSVKGRFTISRDNAKNTVYFQMNSLKPEDTAVYYCAADPYWFFPHYDSWGQGTQVTVSS | low polyreactivity |
| QVQLVESGGGLVQAGGSLRLSCAASGRTFWNYAMGCYRQAPGKERELVAAISSSGGTTYYADSVKGRFTISRDNAKNTVYLQMNTLKPEDTAVYYCAATGVSKPQRSFGYWGQGTQVTVSS | low polyreactivity |
| QVQLVESGGGLVQAGGSLRLSCAASGFIFRGYAMGWYRQAPGKERELVAAISRRGGSTYYADSVKGRFTISRDNAKNTVYLQMNSLKPEDTAVYYCNADTTPQGNVRDGYWGQGTQVTVSS | high polyreactivity |
| QVQLVESGGGLVQAGGSLRLSCAASGRIFSQYDMGWYRPAPGKERELVAAISGGVGTNYADSVKGRFTISRDNAKNTVYLQMNSLKPEDTAVYYCAADYSFERSEYEYWGQGTQVTVSS | low polyreactivity |
| QVQLVESWGGLVQAGGSLRLSCAASGSTSVYYAMGWYRQTPGKERELVDAITWDDGSTSYADSVKGRFTISRDNAKNTVYLQMNSLKPEDTEVYYCAKDYEYLGAFNYWGQGTQVTGSS | low polyreactivity |
| QVQLVESGGGLVQAGRSLRLSSAASGSTFYYNPMGWYRQAPGKERELVAAISGGDSTYYADSVKGRFTISRDNAKNTVYLQMNSMKPEDTAVYYCAAASRRRSDGRRYGYWGQGTQVTVSS | high polyreactivity |
| QVQIVESGGGLVQSGGSLRLSCAASGIIFSSNAMGWYRQAPGKERELVAAISRRGGSTYYADSVKGRFTISRDKAKNTVYLQMNSLKPEDTAVYYFIALLYNVAGYDYWGQGTQVTVSS | high polyreactivity |
| QVQLVESGGGLVQAGGSLRLSCAASGGTFSTYTMGCYRQAPGKERELVAGISGRGGSTRYADSVKGRFTISRDNAKNTVYLQMNSLKPEDTAVYYCNARKRSYWGIVFVGLYDYWGQGTQVTVSS | high polyreactivity |
| QVQLVESGGGLVQAGGSLRLSCAASGSIFVTYAMGWYRQAPGKERELVAAINYSGGSTYYADSVKGRFTISRDNAKNTVYLQMNSLKPEDTAVYYCAADERVDQGWIRMDYWGQGTQVTVSS | low polyreactivity |
| QVQLVESGGGLVQAGGSLRLSCAASGRTFAYYAMGWYRQAPGKERELVAAITQSGGRTYYADSVKGRFTISRDNAKNTVYLQMNSLKPEDTAVDYCAARRISGKWEYDYWGQGTQVTVSS | high polyreactivity |
| QVQLVESGGGLVQAGGSLRLSCAASGLTFYYYTMGWYRQAPGKERELVAAIDNGGGTNYADSVKGRFTISRDNAKNTVYLQMNSLKPEDTAVYYCAADRSYYIIIGYDLFAYYYWGQGTQVTVSS | low polyreactivity |
| QVQLVESGGGLVQAGGSLRLSCAASGSIFWSYAMGWYRHAPGKESELVAAITYSGTSTYYADSVKGRFTISRDTAKNTVYLQMNSLKPEDTAVYYCAASPFSRSRNDYWGQGTQVTLSS | low polyreactivity |
| QVQLVESGGGLVQAGGSLRLSCAASGITLSYNDRGWYRQAHGKEREFVAAITGGGSTYYADSVKGRFTISRDNAKNTVYLQMNSLKPEDTEVYYCAAERWYAWTVLYTVSYGYWGQGTQVTVSS | high polyreactivity |
| QVQLVESGGGLVQAGGSLRLSCAASGFTFALYAMGWYRQAPGKERELVAAISSSGGSTYYADSVKGRFTISRDNAKNTVYLQMNSLKPEDTAVYYCNATRPYRYQSHTRTPRRGYWGQGTQVTVSS | high polyreactivity |
| QVQLVESGGGLVQAGGSLRLSCAASGRIFYNYAMGWYRQAPGKERELVAAISSSGGSTYYADSVKGRFTISRDNAKNTVYLQMNSLKPEDTAVYYCAVRKQYSGRYYRAYDYWGQGTQVTVSS | high polyreactivity |
| QVQLVESGGGLVQAGGSLRLSCDASGRIFYGYVMGWYRQAPGKERELVAAINQSGTSTYYADSVKGRFTISRDNAKNTVYLQMNSLKPEDTAVYYCAADQVGWTYDYWGQGTQVTVSS | low polyreactivity |

From the nanobody polyreactivity screen of Harvey et al. (2022)
